Numbering of substitutions follows the chain as printed. Names may count otherwise.
B1: Irga6 (IIGP1), wild type, recombinant, GST cleaved off (enzyme, mouse)
chain: MGQLFSSPKSDENNDLPSSFTGYFKKFNTGRKIISQEILNLIELRMRKGNIQLTNSAISDALKEIDSSVLNVAVTGETGSGKSSFINTLRGIGNEEEGAAKTGVVEVTMERHPYKHPNIPNVVFWDLPGIGSTNFPPNTYLEKMKFYEYDFFIIISATRFKKNDIDIAKAISMMKKEFYFVRTKVDSDITNEADGKPQTFDKEKVLQDIRLNCVNTFRENGIAEPPIFLLSNKNVCHYDFPVLMDKLISDLPIYKRHNFMVSLPNITDSVIEKKRQFLKQRIWLEGFAADLVNIIPSLTFLLDSDLETLKKSMKFYRTVFGVDETSLQRLARDWEIEVDQVEAMIKSPAVFKPTDEETIQERLSRYIQEFCLANGYLLPKNSFLKEIFYLKYYFLDMVTEDAKTLLKEICL
notes: Irga6 (IIGP1), mouse immunity-related GTPase; also called WT Irga6; source: E. coli BL21, purified (glutathione Sepharose, GST cleaved off with thrombin, Superdex 75); not shown: GST, N-terminal, cleaved
B2: Irga6-E106Q (enzyme, mouse)
chain: B1 chain with E106Q
notes: Irga6 (IIGP1), mouse; mutant made in pGEX-4T-2-Irga6; source: E. coli BL21, purified (glutathione Sepharose, GST cleaved off with thrombin, Superdex 75); not shown: GST, N-terminal, cleaved
B3: Irga6-R210E (enzyme, mouse)
chain: B1 chain with R210E
notes: Irga6 (IIGP1), mouse; mutant made in pGEX-4T-2-Irga6; not shown: GST, N-terminal, cleaved
B4: Irga6-E106N (enzyme, mouse)
chain: B1 chain with E106N
notes: as for B2
B5: Irga6-K169E (enzyme, mouse)
chain: B1 chain with K169E
notes: as for B3
B6: Irga6-K176E (enzyme, mouse)
chain: B1 chain with K176E
notes: as for B3
B7: Irga6 with Lys101 mutated to glutamate (enzyme, mouse)
chain: B1 chain with K101E
notes: Irga6 (IIGP1), mouse; mutant made in pGEX-4T-2-Irga6; also called Lys101 mutant; K101E; source: E. coli BL21, purified (glutathione Sepharose, GST cleaved off with thrombin, Superdex 75); not shown: GST, N-terminal, cleaved
B8: Irga6-R31E-K32E (enzyme, mouse)
chain: B1 chain with R31E, K32E
notes: Irga6 (IIGP1), mouse; mutant made in pGEX-4T-2-Irga6; also called Arg31, Lys32 mutant; not shown: GST, N-terminal, cleaved
B9: Irga6-E106A (enzyme, mouse)
chain: B1 chain with E106A
notes: as for B2
B10: Irga6-D186N (enzyme, mouse)
chain: B1 chain with D186N
notes: Irga6 (IIGP1), mouse; mutant made in pGEX-4T-2-Irga6; also called G4-motif mutant; source: E. coli BL21, purified (glutathione Sepharose, GST cleaved off with thrombin, Superdex 75); not shown: GST, N-terminal, cleaved
B11: Irga6-K246E (enzyme, mouse)
chain: B1 chain with K246E
notes: as for B3
B12: Irga6-E106D (enzyme, mouse)
chain: B1 chain with E106D
notes: as for B2

Molecular target: the molecule itself
Experiment: light scattering; self-association (oligomerisation) of 80 μM Irga6 with 10 mM GTP at 37°C; B1 buffer (50 mM Tris/HCl pH 7.4, 5 mM MgCl2)/2 mM DTT; conventional light scattering at 350 or 600 nm

Binding result, binds:
B1
B2
B3
B4
B5
B6
B7
B8
B9
B10
B11
B12
